Source: paper PMC8498466

Substrate: NCCSC[C@H](N)C(=O)O
Assay: cells, lysate or membranes
Details: inside-out membrane vesicles energized with 0.25 mM ATP; 50 mM KCl, 10 mM MgSO4, valinomycin 0.25 uM; Thl 0.5-5 mM; Thl/H+ antiport (export direction)

B1: LysO (LysON-HA) (Escherichia coli K-12) (protein)
chain: MFSGLLIILVPLIVGYLIPLRQQAALKVINQLLSWMVYLILFFMGISLAFLDNLASNLLAILHYSAVSITVILLCNIAALMWLERGLPWRNHHQQEKLPSRIAMALESLKLCGVVVIGFAIGLSGLAFLQHATEASEYTLILLLFLVGIQLRNNGMTLKQIVLNRRGMIVAVVVVVSSLIGGLINAFILDLPINTALAMASGFGWYSLSGILLTESFGPVIGSAAFFNDLARELIAIMLIPGLIRRSRSTALGLCGATSMDFTLPVLQRTGGLDMVPAAIVHGFILSLLVPILIAFFSA
**Q.** B1 was tested. Which Km did it give?
**A.** 1500 µM
